Results reported in publication PMC10681739, “High-throughput data and modeling reveal insights into the mechanisms of cooperative DNA-binding by transcription factor proteins”.

T1: ETS1 (Homo sapiens, UniProt P14921)
T1 sequence: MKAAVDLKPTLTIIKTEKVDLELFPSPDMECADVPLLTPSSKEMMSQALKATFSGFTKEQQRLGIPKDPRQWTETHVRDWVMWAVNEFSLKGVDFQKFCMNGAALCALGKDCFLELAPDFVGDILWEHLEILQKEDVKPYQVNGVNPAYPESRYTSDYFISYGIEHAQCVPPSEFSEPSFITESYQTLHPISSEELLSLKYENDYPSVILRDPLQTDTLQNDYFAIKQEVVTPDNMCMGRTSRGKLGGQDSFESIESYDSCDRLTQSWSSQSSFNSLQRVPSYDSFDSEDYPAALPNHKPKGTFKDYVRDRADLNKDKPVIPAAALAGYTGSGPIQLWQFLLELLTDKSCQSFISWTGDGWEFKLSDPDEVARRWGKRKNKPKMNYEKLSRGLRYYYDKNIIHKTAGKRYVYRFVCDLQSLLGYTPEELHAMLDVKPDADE

B1: Table S2 C row 128 (dsDNA)
DNA 1: AAGATATGGGCTACTTGTGGTTTACTCTGTCTGCTA
DNA 2: TAGCAGACAGAGTAAACCACAAGTAGCCCATATCTT
B2: Table S2 C row 112 (dsDNA)
DNA 1: ACTGTCAAACATTCGACCACAATCTCTGAGGCTGGG
DNA 2: CCCAGCCTCAGAGATTGTGGTCGAATGTTTGACAGT
B3: Table S2 C row 13 (dsDNA)
DNA 1: AACTCACTAGTGTTTTGAGGTTTTAATTGACACCAC
DNA 2: GTGGTGTCAATTAAAACCTCAAAACACTAGTGAGTT
B4: Table S2 C row 123 (dsDNA)
DNA 1: ATGCAGAAGGAATGCTGTGGTAGACAGCATTCCTTT
DNA 2: AAAGGAATGCTGTCTACCACAGCATTCCTTCTGCAT
B5: Table S2 C row 46 (dsDNA)
DNA 1: GGTTTACAGCTCATTTGCGGCAGAATCAAAATGGCT
DNA 2: AGCCATTTTGATTCTGCCGCAAATGAGCTGTAAACC
B6: Table S2 C row 85 (dsDNA)
DNA 1: TGTAATCTTTCTTAATGTGGTTAAATTCAAGTTATT
DNA 2: AATAACTTGAATTTAACCACATTAAGAAAGATTACA
B7: Table S2 C row 58 (dsDNA)
DNA 1: CATCTGCAGACACTGTGTGGTTTCCAGGTTCCCGAG
DNA 2: CTCGGGAACCTGGAAACCACACAGTGTCTGCAGATG
B8: Table S2 C row 175 (dsDNA)
DNA 1: CATCTCAAAGCCTCCTGTGGGTGGAGATGGAATGTG
DNA 2: CACATTCCATCTCCACCCACAGGAGGCTTTGAGATG
B9: Table S2 C row 133 (dsDNA)
DNA 1: TTGTAGGGATGACTGACCACAAAAGACAGTGACTCA
DNA 2: TGAGTCACTGTCTTTTGTGGTCAGTCATCCCTACAA
B10: Table S2 B row 1078 (dsDNA)
DNA 1: TGCAGCTTCCTGTCTGAGGCTTTTTGGTCCTTTCAT
DNA 2: ATGAAAGGACCAAAAAGCCTCAGACAGGAAGCTGCA
B11: Table S2 C row 107 (dsDNA)
DNA 1: TGGCTGAGGGTCTTCTGTGGGTGGACGCATGATTAA
DNA 2: TTAATCATGCGTCCACCCACAGAAGACCCTCAGCCA
B12: Table S2 B row 1578 (dsDNA)
DNA 1: GGCTTCCTGCCCAACTACCAAGAAAAAGTCACAAAG
DNA 2: CTTTGTGACTTTTTCTTGGTAGTTGGGCAGGAAGCC
B13: Table S2 C row 125 (dsDNA)
DNA 1: CATTTCAGTAGACTCACCACAAGGTTGTGGCCAGAA
DNA 2: TTCTGGCCACAACCTTGTGGTGAGTCTACTGAAATG
B14: Table S2 C row 93 (dsDNA)
DNA 1: ATGCTGTCAAAAACTACCACAGACTGATTGGCTTAA
DNA 2: TTAAGCCAATCAGTCTGTGGTAGTTTTTGACAGCAT
B15: Table S2 C row 69 (dsDNA)
DNA 1: CTGGCAAAGCAGAAGTGTGGTTTCAGAGTCTCCCTC
DNA 2: GAGGGAGACTCTGAAACCACACTTCTGCTTTGCCAG
B16: Table S2 C row 155 (dsDNA)
DNA 1: CTCTTTGGCCTTGTCTGTGGTTCTACCAAATCCCAT
DNA 2: ATGGGATTTGGTAGAACCACAGACAAGGCCAAAGAG
B17: Table S2 C row 130 (dsDNA)
DNA 1: AATAATAGAGAAGACACCACAGTTGCCATGGTATTA
DNA 2: TAATACCATGGCAACTGTGGTGTCTTCTCTATTATT
B18: Table S2 C row 23 (dsDNA)
DNA 1: GCTTTGCACAGCTTTGCCACAAAGCCCAGTCTGTGT
DNA 2: ACACAGACTGGGCTTTGTGGCAAAGCTGTGCAAAGC
B19: Table S2 C row 33 (dsDNA)
DNA 1: ATCTCAGTTAAGCAGACCACACTTTACGTTCTAGTT
DNA 2: AACTAGAACGTAAAGTGTGGTCTGCTTAACTGAGAT
B20: Table S2 C row 32 (dsDNA)
DNA 1: TAGTTGTATGTGGAAACCACAAAACTGAGTCATAAA
DNA 2: TTTATGACTCAGTTTTGTGGTTTCCACATACAACTA
B21: Table S2 C row 48 (dsDNA)
DNA 1: TTCAGAGTCAGATCTACCACACACAGCCCAGGAGCC
DNA 2: GGCTCCTGGGCTGTGTGTGGTAGATCTGACTCTGAA
B22: Table S2 C row 134 (dsDNA)
DNA 1: AAGTCTACAGCTCTTTGAGGTTCATGTGTGACTCTA
DNA 2: TAGAGTCACACATGAACCTCAAAGAGCTGTAGACTT
B23: Table S2 C row 159 (dsDNA)
DNA 1: GGAGAGGAGAAAATGCCCACAGGGTACATGGAAAGC
DNA 2: GCTTTCCATGTACCCTGTGGGCATTTTCTCCTCTCC
B24: Table S2 C row 181 (dsDNA)
DNA 1: CACAGGCAGTTCCAGACCGCAGCCTTCCAGGGCCCT
DNA 2: AGGGCCCTGGAAGGCTGCGGTCTGGAACTGCCTGTG
B25: Table S2 C row 197 (dsDNA)
DNA 1: TTGAACTTAGTAGCAACCACACATGGCCATTATTTG
DNA 2: CAAATAATGGCCATGTGTGGTTGCTACTAAGTTCAA
B26: Table S2 B row 665 (dsDNA)
DNA 1: CTCCGTGCCACTACAGCCACTTCCTGCCTTGAAAAC
DNA 2: GTTTTCAAGGCAGGAAGTGGCTGTAGTGGCACGGAG
B27: Table S2 C row 2 (dsDNA)
DNA 1: GTGATGCCGACAGGCCGTGGTTTCTGAGAAACACCA
DNA 2: TGGTGTTTCTCAGAAACCACGGCCTGTCGGCATCAC
B28: Table S2 C row 72 (dsDNA)
DNA 1: ACTACCTTCTTGGTAACCACAAGTCTCAGAGGTACT
DNA 2: AGTACCTCTGAGACTTGTGGTTACCAAGAAGGTAGT
B29: Table S2 C row 100 (dsDNA)
DNA 1: AGATGAATCACAGAGACCACACATGGAGACCCATCT
DNA 2: AGATGGGTCTCCATGTGTGGTCTCTGTGATTCATCT
B30: Table S2 C row 192 (dsDNA)
DNA 1: CAAGGTGGCAGTGATTGTGGCCGGCCACCTATCTGA
DNA 2: TCAGATAGGTGGCCGGCCACAATCACTGCCACCTTG
B31: Table S2 C row 60 (dsDNA)
DNA 1: AGACTCAGGTGGTAAACCGCAGGCCATTTACATACC
DNA 2: GGTATGTAAATGGCCTGCGGTTTACCACCTGAGTCT
B32: Table S2 C row 47 (dsDNA)
DNA 1: CCTACAAATTCCAGCTGTGGTCAGCTGGTGAGCTCT
DNA 2: AGAGCTCACCAGCTGACCACAGCTGGAATTTGTAGG

The binders below were run against T1, ETS1 (assay: gcPBM; 1 nM ETS1). Conditions: tags: N-terminal GST (pDEST15), kept (PMC6008103); label: surface-attached array probe.
With B1 the binding signal was 392 PBM fluorescence, median of replicate spots. For B2, the binding signal was 409 PBM fluorescence, median of replicate spots. In the case of B3, the binding signal is reported as 420 PBM fluorescence, median of replicate spots. In the case of B4, the binding signal is reported as 407 PBM fluorescence, median of replicate spots. In the case of B5, the binding signal is reported as 392 PBM fluorescence, median of replicate spots. In the case of B6, the binding signal is reported as 407 PBM fluorescence, median of replicate spots. With B7 the binding signal was 406 PBM fluorescence, median of replicate spots. For B8, the binding signal was 414 PBM fluorescence, median of replicate spots. In the case of B9, the binding signal is reported as 398 PBM fluorescence, median of replicate spots. In the case of B10, the binding signal is reported as 12900 PBM fluorescence, median of replicate spots. B11 was tested, and the binding signal was 417 PBM fluorescence, median of replicate spots. For B12, the binding signal was 12500 PBM fluorescence, median of replicate spots. In the case of B13, the binding signal is reported as 399 PBM fluorescence, median of replicate spots. With B14 the binding signal was 399 PBM fluorescence, median of replicate spots. In the case of B15, the binding signal is reported as 405 PBM fluorescence, median of replicate spots. In the case of B16, the binding signal is reported as 414 PBM fluorescence, median of replicate spots. B17 was tested, and the binding signal was 414 PBM fluorescence, median of replicate spots. With B18 the binding signal was 399 PBM fluorescence, median of replicate spots. With B19 the binding signal was 393 PBM fluorescence, median of replicate spots. For B20, the binding signal was 395 PBM fluorescence, median of replicate spots. In the case of B21, the binding signal is reported as 393 PBM fluorescence, median of replicate spots. For B22, the binding signal was 394 PBM fluorescence, median of replicate spots. With B23 the binding signal was 409 PBM fluorescence, median of replicate spots. For B24, the binding signal was 391 PBM fluorescence, median of replicate spots. In the case of B25, the binding signal is reported as 416 PBM fluorescence, median of replicate spots. In the case of B26, the binding signal is reported as 13300 PBM fluorescence, median of replicate spots. For B27, the binding signal was 392 PBM fluorescence, median of replicate spots. B28 was tested, and the binding signal was 394 PBM fluorescence, median of replicate spots. In the case of B29, the binding signal is reported as 403 PBM fluorescence, median of replicate spots. With B30 the binding signal was 408 PBM fluorescence, median of replicate spots. In the case of B31, the binding signal is reported as 408 PBM fluorescence, median of replicate spots. With B32 the binding signal was 408 PBM fluorescence, median of replicate spots.
